First the molecules themselves.
B1: GST-Rab5 wild-type [canine] / Myc3-iSH2-p110β (wild type) [bovine | human] (parent)
chain 1: LYEDYTRTSQEIQMKRTAIEAFNETIKIFEEQCQTQERYSKEYIEKFKREGNETEIQRIMHNYEKLKSRISEIVDSRRRLEEDLKKQAAEYREIDKRMNSIKGGGGGGGMCFSFIMPPAMADILDIWAVDSQIASDGSIPVDFLLPTGIYIQLEVPREATISYIKQMLWKQVHNYPMFNLLMDIDSYMFACVNQTAVYEELEDETRRLCDVRPFLPVLKLVTRSCDPGEKLDSKIGVLIGKGLHEFDSLKDPEVNEFRRKMRKFSEEKILSLVGLSWMDWLKQTYPPEHEPSIPENLEDKLYGGKLIVAVHFENCQDVFSFQVSPNMNPIKVNELAIQKRLTIHGKEDEVSPYDYVLQVSGRVEYVFGDHPLIQFQYIRNCVMNRALPHFILVECCKIKKMYEQEMIAIEAAINRNSSNLPLPLPPKKTRIISHVWENNNPFQIVLVKGNKLNTEETVKVHVRAGLFHGTELLCKTIVSSEVSGKNDHIWNEPLEFDINICDLPRMARLCFAVYAVLDKVKTKKSTKTINPSKYQTIRKAGKVHYPVAWVNTMVFDFKGQLRTGDIILHSWSSFPDELEEMLNPMGTVQTNPYTENATALHVKFPENKKQPYYYPPFDKIIEKAAEIASSDSANVSSRGGKKFLPVLKEILDRDPLSQLCENEMDLIWTLRQDCREIFPQSLPKLLLSIKWNKLEDVAQLQALLQIWPKLPPREALELLDFNYPDQYVREYAVGCLRQMSDEELSQYLLQLVQVLKYEPFLDCALSRFLLERALGNRRIGQFLFWHLRSEVHIPAVSVQFGVILEAYCRGSVGHMKVLSKQVEALNKLKTLNSLIKLNAVKLNRAKGKEAMHTCLKQSAYREALSDLQSPLNPCVILSELYVEKCKYMDSKMKPLWLVYNNKVFGEDSVGVIFKNGDDLRQDMLTLQMLRLMDLLWKEAGLDLRMLPYGCLATGDRSGLIEVVSTSETIADIQLNSSNVAAAAAFNKDALLNWLKEYNSGDDLDRAIEEFTLSCAGYCVASYVLGIGDRHSDNIMVKKTGQLFHIDFGHILGNFKSKFGIKRERVPFILTYDFIHVIQQGKTGNTEKFGRFRQCCEDAYLILRRHGNLFITLFALMLTAGLPELTSVKDIQYLKDSLALGKSEEEALKQFKQKFDEALRESWTTKVNWMAHTVRKDYRS
chain 2: ANRGATRPNGPNTGNKICQFKLVLLGESAVGKSSLVLRFVKGQFHEFQESTIGAAFLTQTVCLDDTTVKFEIWDTAGQERYHSLAPMYYRGAQAAIVVYDITNEESFARAKNWVKELQRQASPNIVIALSGNKADLANKRAVDFQEAQSYADDNSLLFMETSAKTSMNVNEIFMAIAKKLPKNEPQNPGANSARGRGVDLTEPTQPTRSQCCSN

The first assay covers variants of B1. Nature of the assay: GST pull-down (summary table). The note with it: with Myc3-iSH2-p110β (wild type) [bovine | human]; n=4; parent: 100.
Consider chain 2 R90E, for which the percent of parent was less than 25 % binding. Same read-out and setting: to chain 2 I52A belongs less than 25 % binding.

The assay is the same for the next values; noted with them: with Myc3-iSH2-p110β (wild type) [bovine | human]; n=5; parent: 100.
chain 2 W73A: the percent of parent is less than 25 % binding.

Consider chain 2 F56A, for which the percent of parent was less than 25 % binding. In the case of chain 2 M87A, the percent of parent is less than 25 % binding.

The same assay, now with this note: with Myc3-iSH2-p110β (wild type) [bovine | human]; n=7; parent: 100.
For chain 2 Y88A, the percent of parent was less than 25 % binding.

For the variant chain 2 Q78L, the percent of parent is less than 25 % binding.

Staying with this assay, now noted: with Myc3-iSH2-p110β (wild type) [bovine | human]; n=10; parent: 100.
Regarding chain 2 L84A, the percent of parent was less than 25 % binding.

The same assay, now with this note: with Myc3-iSH2-p110β (wild type) [bovine | human]; n=6; parent: 100.
Regarding chain 2 Y81A, the percent of parent was less than 25 % binding.

Still in this assay, the particulars now being: with Myc3-iSH2-p110β (wild type) [bovine | human]; n=9; parent: 100.
As for chain 2 E79R, the percent of parent was less than 25 % binding. For the variant chain 2 H82E, the percent of parent was less than 25 % binding.

Staying with this assay, now noted: with Myc3-iSH2-p110β (wild type) [bovine | human]; n=8; parent: 100.
On to chain 2 R80E, for which the percent of parent is less than 25 % binding.

The next assay covers variants of B1. Nature of the assay: GST pull-down, anti-Myc immunoblot quantification. The note with it: with Myc3-iSH2-p110β (wild type) [bovine | human]; GST-Rab5 fusion proteins (10 µg) on glutathione Sepharose beads, GppCp-loaded; Myc-iSH2-p110β from transfected COS-1 lysates; parent: 100; read off a plot.
As to chain 2 Q78L, the percent of parent turned out to be 20 % WT.
